T1: human CCX CKR with N-terminal Flag epitope, stably expressed on HEK293 cells (UniProt Q9NPB9 1-350)
T1 chain: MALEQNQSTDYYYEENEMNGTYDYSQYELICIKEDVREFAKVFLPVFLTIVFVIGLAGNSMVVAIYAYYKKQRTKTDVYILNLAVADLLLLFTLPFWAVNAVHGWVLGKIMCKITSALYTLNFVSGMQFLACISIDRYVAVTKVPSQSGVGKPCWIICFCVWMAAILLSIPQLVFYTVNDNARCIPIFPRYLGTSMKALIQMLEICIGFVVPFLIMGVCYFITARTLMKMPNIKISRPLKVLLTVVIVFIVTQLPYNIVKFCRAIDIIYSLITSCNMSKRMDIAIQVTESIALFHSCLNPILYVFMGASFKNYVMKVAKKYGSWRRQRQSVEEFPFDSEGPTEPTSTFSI

B1: vMIPII (viral macrophage inflammatory protein II) from human Kaposi's sarcoma herpesvirus HHV8 (ligand)
chain: LGASWHRPDKCCLGYQKRPLPQVLLSSWYPTSQLCSKPGVIFLTKRGRQVCADKSKDWVKKLMQQLPVTAR
B2: murine SLC (ligand)
chain: SDGGGQDCCLKYSQKKIPYSIVRGYRKQEPSLGCPIPAILFSPRKHSKPELCANPEEGWVQNLMRRLDQPPAPGKQSPGCRKNRGTSKSGKKGKGSKGCKRTEQTQPSRG
B3: murine TECK (ligand)
chain: QGAFEDCCLGYQHRIKWNVLRHARNYHQQEVSGSCNLRAVRFYFRQKVVCGNPEDMNVKRAMRILTARKRLVHWKSASDSQTERKKSNHMKSKVENPNSTSVRSATLGHPRMVMMPRKTNN
B4: human ELC (EBI1 ligand chemokine) (ligand)
chain: GTNDAEDCCLSVTQKPIPGYIVRNFHYLLIKDGCRVPAVVFTTLRGRQLCAPPDQPWVERIIQRLQRTSAKMKRRSS
modifications: 125I label where used as radioligand
B5: human TECK (thymus expressed chemokine) (ligand)
chain: QGVFEDCCLAYHYPIGWAVLRRAWTYRIQEVSGSCNLPAAIFYLPKRHRKVCGNPKSREVQRAMKLLDARNKVFAKLHHNTQTFQAGPHAVKKLSSGNSKLSSSKFSNPISSSKRNVSLLISANSGL
modifications: 125I label where used as radioligand
B6: human SLC (secondary lymphoid-tissue chemokine) (ligand)
chain: SDGGAQDCCLKYSQRKIPAKVVRSYRKQEPSLGCSIPAILFLPRKRSQAELCADPKELWVQQLMQHLDKTPSPQKPAQGCRKDRGASKTGKKGKGSKGCKRTERSQTPKGP
B7: mMIP-1gamma (murine macrophage inflammatory protein 1 gamma) (ligand)
chain: QITHATETKEVQSSLKAQQGLEIEMFHMGFQDSSDCCLSYNSRIQCSRFIGYFPTSGGCTRPGIIFISKRGFQVCANPSDRRVQRCIERLEQNSQPRTYKQ
B8: MCP-3 (ligand)
chain: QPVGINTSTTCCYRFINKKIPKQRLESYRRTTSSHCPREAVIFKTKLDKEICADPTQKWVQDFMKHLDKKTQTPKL
B9: murine ELC (ligand)
chain: GANDAEDCCLSVTQRPIPGNIVKAFRYLLNEDGCRVPAVVFTTLRGYQLCAPPDQPWVDRIIRRLKKSSAKNKGNSTRRSPVS

Biological target: T1, human CCX CKR with N-terminal Flag …
Experiment: 125I-ELC competition binding

| Binder | IC50 |
| --- | --- |
| B1 | 90 nM |
| B2 | 4 nM |
| B3 | 2 nM |
| B4 | 6 nM |
| B5 | 7 nM |
| B6 | 12 nM |
| B7 | 70 nM |
| B8 | > 2000 nM |
| B9 | 1 nM |

From US6998239 (dated 2006)
